Experimental data from PMC12651572 (Cells, 2025).

What was measured:
Assay in all cases: ELISA; recombinant human antigen coated at 1 μg/mL on Maxisorp plate overnight; antibodies 2 h at room temperature with shaking; HRP anti-human IgG, TMB, OD 450 nm; EC50 by 4PL fit
Conditions in all cases: both partners purified
[1] = target: T1, Recombinant human IL-4Rα (IL-4 receptor alpha chain) (Homo sapiens, UniProt P24394)
T1 construct: interleukin-4 receptor subunit alpha, human, recombinant; source: bought: AcroBiosystems

[2] = target: T2, Recombinant human IL-4Rα/IL-13Rα1 receptor complex (Homo sapiens, UniProt P24394;P78552)
T2 construct: interleukin-4 receptor subunit alpha, human, recombinant; interleukin-13 receptor subunit alpha-1, human, recombinant; source: bought: AcroBiosystems

[3] = target: T3, Recombinant human TSLP (thymic stromal lymphopoietin) (Homo sapiens, UniProt Q969D9)
T3 construct: thymic stromal lymphopoietin, human, recombinant; The reporter and T cell assays used other lots of recombinant human TSLP (R&D Systems for the reporter assay); source: bought: AcroBiosystems

EC50 [1]: ~0.76 nM
EC50 [2]: 0.19 nM
binding result [3]: no binding
B1: IL4R-dupi parental anti-IL-4Rα antibody (dupilumab Fab arms on IgG1 Fc with K409R) (antibody, V domains shown)
VH: EVQLVESGGGLEQPGGSLRLSCAGSGFTFRDYAMTWVRQAPGKGLEWVSSISGSGGNTYYADSVKGRFTISRDNSKNTLYLQMNSLRAEDTAVYYCAKDRLSITIRPRYYGLDVWGQGTTVTVSS
VL: DIVMTQSPLSLPVTPGEPASISCRSSQSLLYSIGYNYLDWYLQKSGQSPQLLIYLGSNRASGVPDRFSGSGSGTDFTLKISRVEAEDVGFYYCMQALQTPYTFGQGTKLEIK
notes: variable region of the dupilumab heavy chain; CH1 and hinge are not described; dupilumab light chain; IgG1; Not the dupilumab analogue with native IgG4 Fc, which was used in the mouse study and the FcRn ELISA; also called IL4R-dupi parental antibody; bivalent IL4R-dupi; source: Expi293F, transiently co-transfected, purified (MabSelect SuRe)
